The record followed here is PMC5562876, “The integration of Gβ and MAPK signaling cascade in zygote development” (Scientific Reports, 2017).

The labels stand for the following.
B1: MKK4 (purified, pull-down) (natural protein, Arabidopsis thaliana, UniProt O80397 1-366, looked up)
chain: MRPIQSPPGVSVPVKSRPRRRPDLTLPLPQRDVSLAVPLPLPPTSGGSGGSSGSAPSSGGSASSTNTNSSIEAKNYSDLVRGNRIGSGAGGTVYKVIHRPSSRLYALKVIYGNHEETVRRQICREIEILRDVNHPNVVKCHEMFDQNGEIQVLLEFMDKGSLEGAHVWKEQQLADLSRQILSGLAYLHSRHIVHRDIKPSNLLINSAKNVKIADFGVSRILAQTMDPCNSSVGTIAYMSPERINTDLNQGKYDGYAGDIWSLGVSILEFYLGRFPFPVSRQGDWASLMCAICMSQPPEAPATASPEFRHFISCCLQREPGKRRSAMQLLQHPFILRASPSQNRSPQNLHQLLPPPRPLSSSSSPTT
notes: MKK4, MAP kinase kinase 4, Arabidopsis thaliana, At1G51660; source: E. coli, purified (glutathione agarose beads)
B2: AGB1 (purified, pull-down) (natural protein, Arabidopsis thaliana, UniProt P49177 1-377, looked up)
chain: MSVSELKERHAVATETVNNLRDQLRQRRLQLLDTDVARYSAAQGRTRVSFGATDLVCCRTLQGHTGKVYSLDWTPERNRIVSASQDGRLIVWNALTSQKTHAIKLPCAWVMTCAFSPNGQSVACGGLDSVCSIFSLSSTADKDGTVPVSRMLTGHRGYVSCCQYVPNEDAHLITSSGDQTCILWDVTTGLKTSVFGGEFQSGHTADVLSVSISGSNPNWFISGSCDSTARLWDTRAASRAVRTFHGHEGDVNTVKFFPDGYRFGTGSDDGTCRLYDIRTGHQLQVYQPHGDGENGPVTSIAFSVSGRLLFAGYASNNTCYVWDTLLGEVVLDLGLQQDSHRNRISCLGLSADGSALCTGSWDSNLKIWAFGGHRRVI
notes: AGB1, G protein beta subunit, Arabidopsis thaliana, At4G34460; source: E. coli, purified (glutathione agarose beads)
B3: AGG2 (purified, pull-down) (natural protein, Arabidopsis thaliana, UniProt Q93V47 1-100, looked up)
chain: MEAGSSNSSGQLSGRVVDTRGKHRIQAELKRLEQEARFLEEELEQLEKMDNASASCKEFLDSVDSKPDPLLPETTGPVNATWDQWFEGPKEAKRCGCSIL
notes: AGG2, G protein gamma subunit 2, Arabidopsis thaliana, At3G22942; fusion protein; source: E. coli, purified (glutathione agarose beads)
B4: GPA1 (purified, pull-down) (natural protein, Arabidopsis thaliana, UniProt P18064 1-383, looked up)
chain: MGLLCSRSRHHTEDTDENTQAAEIERRIEQEAKAEKHIRKLLLLGAGESGKSTIFKQIKLLFQTGFDEGELKSYVPVIHANVYQTIKLLHDGTKEFAQNETDSAKYMLSSESIAIGEKLSEIGGRLDYPRLTKDIAEGIETLWKDPAIQETCARGNELQVPDCTKYLMENLKRLSDINYIPTKEDVLYARVRTTGVVEIQFSPVGENKKSGEVYRLFDVGGQRNERRKWIHLFEGVTAVIFCAAISEYDQTLFEDEQKNRMMETKELFDWVLKQPCFEKTSFMLFLNKFDIFEKKVLDVPLNVCEWFRDYQPVSSGKQEIEHAYEFVKKKFEELYYQNTAPDRVDRVFKIYRTTALDQKLVKKTFKLVDETLRRRNLLEAGLL
notes: GPA1, G protein alpha subunit, Arabidopsis thaliana, At2G26300; fusion protein; also called WtGPA1; source: E. coli, purified (glutathione agarose beads)
B5: GPA1^Q222L (purified, pull-down) (natural protein, Arabidopsis thaliana, UniProt P18064 1-383, looked up)
chain: B4 chain with Q222L
notes: GPA1, G protein alpha subunit, Arabidopsis thaliana, At2G26300, with Q222L; fusion protein; source: E. coli, purified (glutathione agarose beads)
B6: AGG1 (purified, pull-down) (natural protein, Arabidopsis thaliana, UniProt Q9FDX9 1-98, looked up)
chain: MREETVVYEQEESVSHGGGKHRILAELARVEQEVAFLEKELKEVENTDIVSTVCEELLSVIEKGPDPLLPLTNGPLNLGWDRWFEGPNGGEGCRCLIL
notes: AGG1, G protein gamma subunit 1, Arabidopsis thaliana, At3G63420; fusion protein; source: E. coli, purified (glutathione agarose beads)
B7: MKK5 (purified, pull-down) (natural protein, Arabidopsis thaliana, UniProt Q8RXG3 1-348, looked up)
chain: MKPIQSPSGVASPMKNRLRKRPDLSLPLPHRDVALAVPLPLPPPSSSSSAPASSSAISTNISAAKSLSELERVNRIGSGAGGTVYKVIHTPTSRPFALKVIYGNHEDTVRRQICREIEILRSVDHPNVVKCHDMFDHNGEIQVLLEFMDQGSLEGAHIWQEQELADLSRQILSGLAYLHRRHIVHRDIKPSNLLINSAKNVKIADFGVSRILAQTMDPCNSSVGTIAYMSPERINTDLNHGRYDGYAGDVWSLGVSILEFYLGRFPFAVSRQGDWASLMCAICMSQPPEAPATASQEFRHFVSCCLQSDPPKRWSAQQLLQHPFILKATGGPNLRQMLPPPRPLPSAS
notes: MKK5, MAP kinase kinase 5, Arabidopsis thaliana, At3G21220; source: E. coli, purified (glutathione agarose beads)

Substitutions are numbered along the chain they refer to. Names may count otherwise.

Common to all, as to test: pull-down; purified fusion proteins from E. coli incubated with glutathione agarose beads, 25 mM Tris-HCl pH 7.5, 100 mM NaCl, 1 mM DTT, 1 hr; seven washes with 0.1% Triton X-100; eluted with 15 mM GSH; immunoblot
What all share (conditions): both partners purified

In assay [1] the target is B2.
The target of assay [2] is T1, MPK6 (purified, pull-down) (Arabidopsis thaliana, UniProt Q39026 1-395).
T1 construct: MPK6, MAP kinase 6, Arabidopsis thaliana, At2G43790; fusion protein; source: E. coli, purified (glutathione agarose beads)

For assay [3], the target named is B7.
Assay [4] has as its target B1.

T1 sequence (Q39026 whole entry, the tested form may be a part): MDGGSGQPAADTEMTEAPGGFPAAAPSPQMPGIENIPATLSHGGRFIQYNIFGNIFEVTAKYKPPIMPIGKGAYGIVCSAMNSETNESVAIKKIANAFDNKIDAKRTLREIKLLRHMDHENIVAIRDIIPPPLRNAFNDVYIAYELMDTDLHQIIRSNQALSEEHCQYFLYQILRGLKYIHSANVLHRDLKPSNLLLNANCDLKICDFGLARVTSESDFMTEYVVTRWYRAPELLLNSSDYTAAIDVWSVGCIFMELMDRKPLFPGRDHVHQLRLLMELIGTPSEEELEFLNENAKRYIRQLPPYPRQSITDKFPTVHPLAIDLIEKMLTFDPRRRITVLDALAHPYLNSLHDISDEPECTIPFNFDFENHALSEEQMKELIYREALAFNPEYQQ

As for B1, the binding result in assay [1] was “binds”.
Regarding B2, in assay [2], the binding result is given as “binds”.
As for B3, the binding result in assay [3], in assay [2] and in assay [4] was “binds” each time.
With B4, the binding result in assay [2] is on record as “binds”.
Take B5: the binding result in assay [2] is on record as “binds”.
B6: the binding result in assay [3], in assay [2] and in assay [4] was “binds” throughout.
For B7, the binding result in assay [1] was “binds”.
